The nature of this data set: yeast display, Sf9 membrane polyspecificity reagent, FACS + sequencing; frameworks hold sequencing errors. The procedure, abridged: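 Genes from sorted yeast were amplified by colony PCR, read by MiSeq 2 × 250 sequencing and filtered on CDR length. These cells carried a synthetic nanobody library in Saccharomyces cerevisiae BJ5465 and were sorted by FACS into low and high (top ~1%) gates on anti-HA and streptavidin fluorescence. Polyreactivity is labelled according to the gate of origin.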
For “QVQLVESGGGLVQAGGSLRLSCAASGGIFKRYAMGWYRQAPGKERELVAAISGRGGGTYYADSVKGRFTISRDNATNTVYLQMTSLKPEDTAVYYCNARLSWSAFGYWGQGTQVTVSS”, the “polyreactivity (PSR sort gate)” value is listed as “high polyreactivity”.
For “QVQLVESGGGLVQAGGSLRLSCAASGFIFGYYTMGWYRQAPGKERELVASISSRGGSTFYADSVKGRFTISRDNAKNTVYLQMNSLKPEDTAVYYCAVRRGVYYYPYYYWGQGTQVTVSS”, the “polyreactivity (PSR sort gate)” value is “high polyreactivity”.
With “QVQLVESGGGLVQAGGSLRLSCAASGGTFKHYAMGWYRQAAGKERELVAAITRTGGSTYYADSVKGRYTISRDNAKNTVYLQMNSLKPEDTAVYYCAAQRPRGAYRHYDYWGQGTQVTVSS” the entry was “high polyreactivity”; with “QDQLVESGGGLVQAGGSLRLSCAASGSTFKYYAMGWYRQAPGKERELVAAISWTGGSTYYADSVKGRFTISRDNAKNTVYLQMNSLKPEDTAVYYCNAMGHVQGYDYWGQVTQVTVSS”, “high polyreactivity”; with “QVQLVESGGGLVQAGGSLRLSCAASGRIITRNVMGWYRQAPGKERELVAAISTSGGSTFYADSVKGRFTISRDNAKKTVYLQMNSLKPEDTAVYYCAKRRYGKLEFWGQGTQVTVSS”, “high polyreactivity”.
With “QVQLVESGGGLVQAGGSLRLSCAASGFIFLWNAMAWYRQAPGKELDLVAAINRGTSTNYADSVKGRFTISRDNAKNTVYLQMNSLKPEDTAVYYCAVSVLPWQMYSESYAEYDYWGQGTQVTVSS” the entry was “low polyreactivity”; with “QVQLVESGGGLVQAGGSLRFSCAASGTFDYYDMGWYRQAPGKEWELVAGITSGGSTDYADSEKGRFTISRDNAKNTVYLQMNSLKPEDTAVYYCAADPFRIHTYDYWGQGTQVTVSS”, “low polyreactivity”.
Regarding “QVQLVESGGGLVQAGGSLRLSCAASGFIFSYNAMGWYREAPGKERELVAAISSRGGSTYYADSVKGRFTISRDNAKNTVYLQMNSLKPEDTADYYCAVASRRVYTAPYDYWGQGTQVTVSS”, the “polyreactivity (PSR sort gate)” value is “high polyreactivity”.
In the case of “QVQLVESGGGLVQAGGSLRLSCAASGRIFGSYALGWYRQAPGKERELVAAISSGGSTSYADSVKGRFTISRDNAKNTVYLQMNSLKPEDTAVDYCNRLRLFRGRGDYWGQGTQVTVSS” it was “high polyreactivity”.
Consider “QVQLVESCGGLVQAGGSLRLSCAASGSTFWKYVMGWYRQAPGKDRELVAAISGRGGSTYYADSVKGRFTISRDNAKNTVYLQMNSLKPEDTAVYYCAKVHTRRKPYNSWGQGTQVTVSS”, for which the “polyreactivity (PSR sort gate)” value is reported as “high polyreactivity”.
Consider “QVQLVESGGGLVQAGGSLRLICAASGRIFDPYAMGWYRQAPGKERELVASISWSGGRTYYADSVKGRFTISRDNAKNTVYLQMNSLKPEDTAVYYCAARQWYRYKVRFDYWGQGTQVTVSS”, for which the “polyreactivity (PSR sort gate)” value is given as “high polyreactivity”.
In the case of “QVQLVESGGGLVQAGGSLRLSCAASGSTYYLYAMGWYRQAPGKERELVAVITWSDGSTYYADSVKGRFTISRDNAKNTVYFQMNSLKPEDTAVSYCAKDLDSGGRGYYWGQGTQVTVSS” it was “low polyreactivity”.
On to “QVQLVESGGGLVQAGGSLRLSCAASGSIFLLNAMGWYRQAPGKERELVARIRINGGSTYYADSVKGRFTISRDNAKNTVYLKMNSLKPEDTAVYYCAADDTGPYSNWYDYWGQGTQVTVSS”, for which the “polyreactivity (PSR sort gate)” value was “low polyreactivity”.
As to “QVQLVESGGGLVQAGGSLRLSCAASGSTFTVNGMGWYRQAPGKERELVAAITWGGGSTYYADSVKGRFTISRDNAKNTVYLQMNSLKPEDTAVYYCAADDGYLFDYWGQGTQVTVSS”, the “polyreactivity (PSR sort gate)” value is listed as “low polyreactivity”.
In the case of “QVQLVESGGGLVQAGGTLRFSCAASGSILEYYTMGWDRQAPGKERELVAAISASGGNTYYADSVKGRFTISRANAKNTVYFQMNSLKPEDTAVYYCNAYYGPRGYGYWGQGTQVTVSS” it was “high polyreactivity”; in that of “QVQLVESGGGLVQAGGSLRLSCAASGSILVPNAMGWYRQAPRKERELVAGISANGGSTYYADSVKGRFTISRDNAKNTVYFQMNSLKPEDTAVYDCNARLYWDWYGDDYWGQGTQVTVSS”, “low polyreactivity”.

Values taken from the nanobody polyreactivity screen of Harvey et al. (2022).
